# Reference: patent publication US20150104459A1
# B1: TCN-504 (3251_K17) (antibody, V domains shown)
# VH: QVQLQESGPGLVKPSETLSLTCAVSGVSISNIDFYWGWIRQPPGKGLEWIGNIYYTGITFYNPSLSSRVAISIDTSKNQFSLTLTSVTAADTAMYYCARHYGDSEAINDAFDIWGQGTMLTVSS
# VL: EIVMTQSPATLSVSPGERATLSCRASQSVGNSLAWYQQRPGQAPRLLIYGASTRATGIPPRFSGSGSGTEFTLTISSLQTEDFAVYYCQQYINWRPLSFGGGTKVEIK
# Molecular target: recombinant soluble homotrimeric HA of A/common magpie/Hong Kong/5052/07 (H5N1) (Influenza A virus A/common magpie/Hong Kong/5052/2007 (H5N1))
# Test: HA microarray, control mAb
# Conditions: remark: other sources report otherwise
binder,measurement,value
B1,Trimeric HA Binding RLU,17000 RLU
